Source: paper PMC11511825

Biological target: FUS-eGFP (C-terminally eGFP-tagged Fused in Sarcoma) (UniProt P35637)
Assay: FRET or BRET

FUS-eGFP (C-terminally eGFP-tagged Fused in Sarcoma) (from UniProt P35637 1-526) (natural protein)
apparent homoFRET efficiency (E Homo): 0.7
steady-state fluorescence anisotropy in droplets (loss by homoFRET): 0.08
